Measurements as given in patent EP4703377A1.

B1: Clone 7 (antibody, V domains shown)
VH: QVQLQESGPGLVKPSETLSLTCSVSGGPLTSSTYFWGWIRQPPGKGLEWLGSINFRGTTDNAPSLKSRVTLSIDTSTHQFSLRLSSVTAKDTAVYYCARHTQRLTVFTVVHGFDLWGQGTVVSVSS
VL: QSALTQPASVSGSPGQSITISCTGATGDIGVSDFVSWYQQHPGKAPKLIIFDVTNRPSGVSNRFSGSKSVNTASLTISGLQAEDEADYYCCLYSTRSRDWEFGGGTKLTVL
B2: Clone 6 (antibody, V domains shown)
VH: QVQLEQSGAEVKKPGSSVKVSCKASGPMFSRSAFSWVRQAPGQGLEWMGRIIPTVDLKNYAQKFQGRVTFTADKSTATSYMELRSLKSEDTAVYYCARMGSGSSYYGMDVWGLGTTVTVSS
VL: DIVMTQSPLSLPVIPGEPASISCRSSQSLLQSNGNNYLDWYLQKPGQSPQLLIYLGSNRASGVPDRFSGSGSGTDFTLTISRVEAEDVGVYYCLQARQSSVLTFGGGTKLEIK
B3: Clone 5 (antibody, V domains shown)
VH: QVQLQESGPGLVKPSETLSLTCTVSGVSMNSNHWSWIRQAPGKELEWIGYIYYTGKTFYNPSLQSRVTVSLDTSKNQFYLKLTSVTAADTAVYYCARRAMASVQRGILRVFDLWGQGKMVTVSS
VL: DIQMTQSPSTLSASVGDRVTITCRASQIIDKWLAWYQHKPGKAPKLLIYEASNLETGVPSRFSGSGSGTEFTLTISSLQPDDFATYFCQQYKSYLPYTFGQGTKLEIK

Tests used:
[1] = molecular target: Recombinant HA antigen A/Anhui/1/2013 (H7N9) (influenza A virus A/Anhui/1/2013 (H7N9)); test: ELISA on plate-coated recombinant HA; AUC of the absorbance (490 nm) curve
[2] = molecular target: Recombinant HA antigen A/Narita/1/2009 (H1N1pdm09) (influenza A virus A/Narita/1/2009 (H1N1pdm09)); test: as above
[3] = molecular target: Recombinant HA antigen H1, A/South Carolina/1/1918 (H1N1) (influenza A virus A/South Carolina/1/1918 (H1N1)) (UniProt Q9WFX3); test: as above
[4] = molecular target: Recombinant HA antigen H10, A/mallard/Interior Alaska/10BM01929R0/2010 (H10N7) (influenza A virus A/mallard/Interior Alaska/10BM01929R0/2010 (H10N7)); test: as above
[5] = molecular target: Recombinant HA antigen H11, A/northern shoveler/Netherlands/18/1999 (H11N9) (influenza A virus A/northern shoveler/Netherlands/18/1999 (H11N9)); test: as above
[6] = molecular target: Recombinant HA antigen H12, A/mallard/Interior Alaska/7MP0167/2007 (H12N5) (influenza A virus A/mallard/Interior Alaska/7MP0167/2007 (H12N5)); test: as above
[7] = molecular target: Recombinant HA antigen H13, A/black-headed gull/Sweden/1/1999 (H13N6) (influenza A virus A/black-headed gull/Sweden/1/1999 (H13N6)); test: as above
[8] = molecular target: Recombinant HA antigen H14, A/mallard/Astrakhan/263/1982 (H14N5) (influenza A virus A/mallard/Astrakhan/263/1982 (H14N5)); test: as above
[9] = molecular target: Recombinant HA antigen H15, A/shearwater/Australia/2576/1979 (H15N9) (influenza A virus A/shearwater/Australia/2576/1979 (H15N9)); test: as above
[10] = molecular target: Recombinant HA antigen H16, A/black-headed gull/Sweden/5/99 (H16N3) (influenza A virus A/black-headed gull/Sweden/5/99 (H16N3)); test: as above
[11] = molecular target: Recombinant HA antigen H17, A/little yellow-shouldered bat/Guatemala/060/2010 (H17N10) (influenza A virus A/little yellow-shouldered bat/Guatemala/060/2010 (H17N10)); test: as above
[12] = molecular target: Recombinant HA antigen H18, A/flat-faced bat/Peru/033/2010 (H18N11) (influenza A virus A/flat-faced bat/Peru/033/2010 (H18N11)); test: as above
[13] = molecular target: Recombinant HA antigen H2, A/Japan/305/57 (H2N2) (influenza A virus A/Japan/305/57 (H2N2)) (UniProt P03451); test: as above
[14] = molecular target: Recombinant HA antigen H4, A/duck/Czechoslovakia/1956 (H4N6) (influenza A virus A/duck/Czechoslovakia/1956 (H4N6)) (UniProt P19696); test: as above
[15] = molecular target: Recombinant HA antigen H5, A/Laos/JP127/2004 (H5N1) (influenza A virus A/Laos/JP127/2004 (H5N1)); test: as above
[16] = molecular target: Recombinant HA antigen H6, A/mallard/Sweden/81/2002 (H6N1) (influenza A virus A/mallard/Sweden/81/2002 (H6N1)); test: as above
[17] = molecular target: Recombinant HA antigen H8, A/mallard/Sweden/24/2002 (H8N4) (influenza A virus A/mallard/Sweden/24/2002 (H8N4)); test: as above
[18] = molecular target: Recombinant HA antigen H9, A/guinea fowl/Hong Kong/WF10/99 (H9N2) (influenza A virus A/guinea fowl/Hong Kong/WF10/99 (H9N2)); test: as above
[19] = molecular target: Recombinant HA antigen H3, A/Hong Kong/1/68 (H3N2) (influenza A virus A/Hong Kong/1/68 (H3N2)) (UniProt Q91MA7); test: as above
[20] = molecular target: H3 LAH
[21] = molecular target: H3 LAH; test: ELISA on H3 LAH at 15.625 ng/mL clone 5

Row | Binder | AUC value [1] | AUC value [2] | AUC value [3] | AUC value [4] | AUC value [5] | AUC value [6] | AUC value [7] | AUC value [8] | AUC value [9] | AUC value [10] | AUC value [11] | AUC value [12] | AUC value [13] | AUC value [14] | AUC value [15] | AUC value [16] | AUC value [17] | AUC value [18] | further results
1 | B1 | 3260 | 3350 | 3320 | 3220 | 300 | 3340 | 1560 | 3320 | 3270 | 3200 | 3350 | 3160 | 3300 | 3250 | 3290 | 3220 | 3320 | 3240 | 
2 | B2 | 3320 | 2480 | 3360 | 3330 | 757 | 98.5 | 117 | 3360 | 3360 | 290 | 3370 | 3240 | 3310 | 3310 | 3240 | 2800 | 474 | 632 | AUC value [19]: 3300
3 | B3 |  |  |  |  |  |  |  |  |  |  |  |  |  |  |  |  |  |  | titer [20]: 0.92 AU/mL; absorbance [21]: 0.877 absorbance
